Assay results as given in publication PMC8319186, “Mitochondrial adaptor TRAK2 activates and functionally links opposing kinesin and dynein motors” (Nature Communications, 2021).

B1: Halo-TRAK2 [not stated] / Myc-KIF5B [mouse] (parent complex)
chain 1: MSQSQNAIFTSPTGEENLMNSNHRDSESITDVCSNEDLPEVELVSLLEEQLPQYRLKVDTLFLYENQDWTQSPHQRQHASDALSPVLAEETFRYMILGTDRVEQMTKTYNDIDMVTHLLAERDRDLELAARIGQALLKRNHVLSEQNESLEEQLGQAFDQVNQLQHELCKKDELLRIVSIASEESETDSSCSTPLRFNESFSLSQGLLQLEMLQEKLKELEEENMALRSKACHIKTETVTYEEKEQQLVSDCVKELRETNAQMSRMTEELSGKSDELIRYQEELSSLLSQIVDLQHKLKEHVIEKEELKLHLQASKDAQRQLTMELHELQDRNMECLGMLHESQEEIKELRSRSGPTAHLYFSQSYGAFTGESLAAEIEGTMRKKLSLDEESSLFKQKAQQKRVFDTVRIANDTRGRSISFPALLPIPGSNRSSVIMTAKPFESGLQQTEDKSLLNQGSSSEEVAGSSQKMGQPGPSGDSDLATALHRLSLRRQNYLSEKQFFAEEWQRKIQVLADQKEGVSGCVTPTESLASLCTTQSEITDLSSASCLRGFMPEKLQIVKPLEGSQTLYHWQQLAQPNLGTILDPRPGVITKGFTQLPGDAIYHISDLEEDEEEGITFQVQQPLEVEEKLSTSKPVTGIFLPPITSAGGPVTVATANPGKCLSCTNSTFTFTTCRILHPSDITQVTPSSGFPSLSCGSSGSSSSNTAVNSPALSYRLSIGESITNRRDSTTTFSSTMSLAKLLQERGISAKVYHSPISENPLQPLPKSLAIPSTPPNSPSHSPCPSPLPFEPRVHLSENFLASRPAETFLQEMYGLRPSRNPPDVGQLKMNLVDRLKRLGIARVVKNPGAQENGRCQEAEIGPQKPDSAVYLNSGSSLLGGLRRNQSLPVIMGSFAAPVCTSSPKMGVLKED
chain 2: MADPAECNIKVMCRFRPLNESEVNRGDKYVAKFQGEDTVMIASKPYAFDRVFQSSTSQEQVYNDCAKKIVKDVLEGYNGTIFAYGQTSSGKTHTMEGKLHDPEGMGIIPRIVQDIFNYIYSMDENLEFHIKVSYFEIYLDKIRDLLDVSKTNLSVHEDKNRVPYVKGCTERFVCSPDEVMDTIDEGKSNRHVAVTNMNEHSSRSHSIFLINVKQENTQTEQKLSGKLYLVDLAGSEKVSKTGAEGAVLDEAKNINKSLSALGNVISALAEGSTYVPYRDSKMTRILQDSLGGNCRTTIVICCSPSSYNESETKSTLLFGQRAKTIKNTVCVNVELTAEQWKKKYEKEKEKNKTLRNTIQWLENELNRWRNGETVPIDEQFDKEKANLEAFTADKDIAITSDKPAAAVGMAGSFTDAERRKCEEELAKLYKQLDDKDEEINQQSQLVEKLKTQMLDQEELLASTRRDQDNMQAELNRLQAENDASKEEVKEVLQALEELAVNYDQKSQEVEDKTKEYELLSDELNQKSATLASIDAELQKLKEMTNHQKKRAAEMMASLLKDLAEIGIAVGNNDVKQPEGTGMIDEEFTVARLYISKMKSEVKTMVKRCKQLESTQTESNKKMEENEKELAACQLRISQHEAKIKSLTEYLQNVEQKKRQLEESVDSLGEELVQLRAQEKVHEMEKEHLNKVQTANEVKQAVEQQIQSHRETHQKQISSLRDEVEAKEKLITDLQDQNQKMVLEQERLRVEHERLKATDQEKSRKLHELTVMQDRREQARQDLKGLEETVAKELQTLHNLRKLFVQDLATRVKKSAEVDSDDTGGSAAQKQKISFLENNLEQLTKVHKQLVRDNADLRCELPKLEKRLRATAERVKALESALKEAKENASRDRKRYQQEVDRIKEAVRSKNMARRGHSAQIAKPIRPGQHPAASPTHPGTVRGGGSFVQNNQPVGLRGGGGKQS

Variants of: B1
Assay: co-immunoprecipitation (Halo antibody IP, western blot quantification); extracts from COS-7 cells transfected with Myc-KIF5B and Halo-tagged constructs; mean ± s.d. from three independent experiments; parent: 0.65; read off a plot

Variant | response
chain 1 I132D | ~0.6
chain 1 A129V, chain 1 A130V | ~0.61
